Test results published in patent publication US20220033485A1 (TEIJIN PHARMA, published 2022).
Positions count from the first letter of the chain named. In names and notes the source's numbering stands.

B1: anti-IGF-I receptor humanized antibody R11-16B (antibody, human IgG4, V domains shown)
VH: QVQLVQPGAELVKPGASVKVSCKAPGYTFTSYWMHWVRQAPGQGLEWIGETNPSNSVTNYNEKFKSKATLTVDTSTSTVYMELSSLRSEDTAVYYCTIGRGRGFAYWGQGTLVTVSS
VL: DIQMTQSPSSLSASVGDRVTITCRASQNINFWLSWYQQKPGKAPKLLIYKASNLHTGVPSRFSGSGSGTDFTFTISSLQPEDIATYYCLQGQSYPYTFGQGTKLEIK
notes: Heavy chain constant region: human IgG4 S228P variant; Expressed in Expi293, protein A purified; also called R11-16B antibody; R11-16VH + R11-16VL-C36Y
B2: anti-IGF-I receptor humanized antibody R11-16C (antibody, human IgG4, V domains shown)
VH: B1 VH
VL: B1 VL with Y36A
notes: also called R11-16C antibody; R11-16VH + R11-16VL-C36A
B3: anti-IGF-I receptor humanized antibody R11-16F (antibody, human IgG4, V domains shown)
VH: B1 VH
VL: B1 VL with Y36C
notes: also called R11-16F antibody; R11-16VH + R11-16VL-C36
B4: anti-IGF-I receptor humanized antibody R11-16E (antibody, human IgG4, V domains shown)
VH: B1 VH
VL: B1 VL with Y36F
notes: also called R11-16E antibody; R11-16VH + R11-16VL-C36F
B5: anti-IGF-I receptor humanized antibody R11-16D (antibody, human IgG4, V domains shown)
VH: B1 VH
VL: B1 VL with Y36S
notes: also called R11-16D antibody; R11-16VH + R11-16VL-C36S

Molecular target: T1, human IGF-I receptor (human, UniProt P08069 31-1367)
T1 sequence (P08069 31-1367 limits assumed): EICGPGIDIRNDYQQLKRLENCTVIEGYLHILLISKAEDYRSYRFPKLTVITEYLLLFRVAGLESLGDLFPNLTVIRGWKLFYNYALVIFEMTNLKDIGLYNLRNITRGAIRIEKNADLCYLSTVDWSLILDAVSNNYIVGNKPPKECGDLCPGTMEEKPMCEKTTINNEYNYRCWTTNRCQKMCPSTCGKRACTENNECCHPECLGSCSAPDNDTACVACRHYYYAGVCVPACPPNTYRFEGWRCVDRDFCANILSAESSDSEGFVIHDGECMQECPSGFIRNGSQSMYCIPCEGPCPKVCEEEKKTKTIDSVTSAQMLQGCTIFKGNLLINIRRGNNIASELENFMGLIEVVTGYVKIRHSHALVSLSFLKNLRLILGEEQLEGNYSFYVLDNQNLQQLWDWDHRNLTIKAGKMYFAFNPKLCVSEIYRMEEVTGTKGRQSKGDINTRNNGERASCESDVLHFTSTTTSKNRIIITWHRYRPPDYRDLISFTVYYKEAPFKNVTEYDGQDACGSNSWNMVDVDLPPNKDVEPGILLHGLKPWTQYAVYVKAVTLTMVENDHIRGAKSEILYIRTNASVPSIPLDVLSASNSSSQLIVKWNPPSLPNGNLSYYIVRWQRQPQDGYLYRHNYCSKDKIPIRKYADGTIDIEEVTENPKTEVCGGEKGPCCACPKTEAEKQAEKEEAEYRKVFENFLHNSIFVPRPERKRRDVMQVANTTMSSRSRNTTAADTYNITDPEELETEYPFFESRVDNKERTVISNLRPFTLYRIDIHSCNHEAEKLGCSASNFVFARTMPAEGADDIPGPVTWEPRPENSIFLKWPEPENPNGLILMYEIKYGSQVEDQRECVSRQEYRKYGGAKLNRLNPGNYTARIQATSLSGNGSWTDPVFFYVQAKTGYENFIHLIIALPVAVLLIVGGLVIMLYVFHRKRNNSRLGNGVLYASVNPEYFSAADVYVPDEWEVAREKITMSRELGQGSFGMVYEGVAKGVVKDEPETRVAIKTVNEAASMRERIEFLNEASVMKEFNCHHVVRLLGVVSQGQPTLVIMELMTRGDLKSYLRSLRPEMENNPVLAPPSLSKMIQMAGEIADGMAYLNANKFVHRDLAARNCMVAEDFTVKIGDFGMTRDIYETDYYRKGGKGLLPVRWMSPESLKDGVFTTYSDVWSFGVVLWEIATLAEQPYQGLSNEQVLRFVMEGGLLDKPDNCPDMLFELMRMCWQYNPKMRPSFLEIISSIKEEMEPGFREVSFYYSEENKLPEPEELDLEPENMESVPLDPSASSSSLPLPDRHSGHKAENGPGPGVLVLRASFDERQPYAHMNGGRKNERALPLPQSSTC
Assay: cell-based or functional assay

EC50 of proliferation activity on human myoblast cells [pM]	Binder
2	B1
2	B2
2	B3
2	B4
2	B5

Molecular target: T1, human IGF-I receptor
Assay: cell-based or functional assay
Remark: another data set of the same source

Proliferation activity on human myoblast cells (%), 0.005 nM, Experiment 1 [%]	Proliferation activity on human myoblast cells (%), 0.005 nM, Experiment 2 [%]	Proliferation activity on human myoblast cells (%), 0.5 nM, Experiment 1 [%]	Proliferation activity on human myoblast cells (%), 0.5 nM, Experiment 2 [%]	Binder
147	148	164	164	B1
150	143	178	172	B2
146	148	161	156	B3
150	143	166	164	B4
144	149	160	169	B5

Molecular target: T2, rat IGF-I receptor (rat, UniProt P24062 31-1370)
T2 construct: Whole entry as named; expressed on HEK293T cells; also called IGF-I receptor of rat; NP_434694
T2 sequence (P24062 31-1370 limits assumed): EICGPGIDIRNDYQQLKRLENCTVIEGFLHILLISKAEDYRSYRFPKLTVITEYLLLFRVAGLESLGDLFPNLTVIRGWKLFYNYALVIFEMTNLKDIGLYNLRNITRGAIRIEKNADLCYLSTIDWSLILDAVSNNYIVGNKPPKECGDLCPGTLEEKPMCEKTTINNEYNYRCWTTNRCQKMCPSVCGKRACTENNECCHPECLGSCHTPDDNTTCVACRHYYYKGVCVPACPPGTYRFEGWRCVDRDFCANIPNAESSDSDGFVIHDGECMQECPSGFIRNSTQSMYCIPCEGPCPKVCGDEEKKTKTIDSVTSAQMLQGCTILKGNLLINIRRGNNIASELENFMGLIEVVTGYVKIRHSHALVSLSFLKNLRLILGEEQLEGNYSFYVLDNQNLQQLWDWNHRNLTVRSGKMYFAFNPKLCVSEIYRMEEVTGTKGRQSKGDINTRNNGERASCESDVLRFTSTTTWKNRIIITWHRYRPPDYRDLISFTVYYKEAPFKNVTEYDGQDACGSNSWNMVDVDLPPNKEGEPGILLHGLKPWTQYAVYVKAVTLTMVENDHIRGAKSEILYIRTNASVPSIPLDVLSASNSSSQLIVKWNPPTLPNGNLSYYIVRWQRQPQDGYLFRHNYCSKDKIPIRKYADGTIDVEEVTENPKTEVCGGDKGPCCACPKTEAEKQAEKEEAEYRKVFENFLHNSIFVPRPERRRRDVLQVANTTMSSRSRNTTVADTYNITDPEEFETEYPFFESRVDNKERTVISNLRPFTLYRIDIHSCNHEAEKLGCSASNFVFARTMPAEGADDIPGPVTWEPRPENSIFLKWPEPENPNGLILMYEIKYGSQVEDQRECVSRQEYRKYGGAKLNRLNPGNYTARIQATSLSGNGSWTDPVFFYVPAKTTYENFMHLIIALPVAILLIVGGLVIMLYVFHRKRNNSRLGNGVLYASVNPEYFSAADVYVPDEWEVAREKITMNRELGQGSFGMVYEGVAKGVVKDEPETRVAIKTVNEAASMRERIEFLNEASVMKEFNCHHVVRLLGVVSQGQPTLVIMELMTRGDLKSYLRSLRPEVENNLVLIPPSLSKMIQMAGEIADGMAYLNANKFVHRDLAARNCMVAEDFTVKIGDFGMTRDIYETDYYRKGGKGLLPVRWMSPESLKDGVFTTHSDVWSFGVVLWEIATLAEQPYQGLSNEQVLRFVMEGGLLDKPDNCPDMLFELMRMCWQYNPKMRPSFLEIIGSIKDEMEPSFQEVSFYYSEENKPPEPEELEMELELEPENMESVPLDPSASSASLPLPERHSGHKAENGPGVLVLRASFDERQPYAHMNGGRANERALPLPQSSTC
Assay: cell-based ELISA on HEK293T cells expressing the receptor
Procedure: (§1) The HEK293T cells cultured for at least one night after the lipofection were added to a 96-well plate (coated with poly-D-lysine) in 4×10⁴ cells/well, and the plate further cultured for at least one night were used in the ELISA.
(§2) In the ELISA, 2 nM humanized antibody solutions in 1% BSA/1% FBS/PBS (100 μL) were added to respective wells and reacted for about one hour at 37° C. The wells were washed three times with a cleaning solution. An HRP conjugate solutions (100 μL) of an anti-human IgG antibody prepared at various concentrations with 1% BSA/1% FBS/PBS was added to the respective wells and reacted for about one hour at 37° C. Each well was washed three times with a cleaning solution. A TMB substrate (100 μL) was added to each well to initiate the reaction. Approximately 30 minutes later, 1M sulfuric acid (100 μL) was added to each well to measure the absorbances at 450 nm and 650 nm and calculate the difference of the values between 450 nm and 650 nm.

binding result	Binder
no binding (tested: 2 nM)	B1
no binding (tested: 2 nM)	B2
no binding (tested: 2 nM)	B3
no binding (tested: 2 nM)	B4
no binding (tested: 2 nM)	B5

Molecular target: T3, Substitute 2 of CR domain (human IGF-I receptor G315S, S316T, C-terminal FLAG tag) (human, UniProt P08069 31-1367)
T3 construct: Expressed on 293T cells, formalin fixed; also called substitute 2 receptor
Assay: cell-based ELISA on fixed 293T cells expressing the substitute receptor
Procedure: (§3) 293T cells were seeded in 10-cm dishes coated with poly-D-lysine in 6×10⁶ cells. On the next day, each plasmid DNA was introduced into the cells by lipofection. Two days later, the 293T cells were released with 0.05% trypsin/EDTA and suspended in the culture medium. The 293T cells were added to a 96-well plate (coated with poly-D-lysine) in 2×10⁴ cells/well and incubated overnight at 37° C. under 5% CO₂. The medium was removed from the 96-well plate. The plate was fixed with 10% buffered formalin (Mildform® 10NM, Wako), replaced by a blocking buffer (3% BSA/PBS/0.02% sodium azide), and used for the ELISA.
(§4) Each well was washed two times with a cleaning solution. A 2500-fold diluted solution of an anti-human IgG antibody ALP conjugate solution (2087-04, Southern Biotech) in the blocking buffer (50 μL) was added to each well and reacted for about one hour at room temperature. Each well was washed three times with a cleaning solution. A pNPP substrate (100 μL) was added to each well to initiate the reaction. The absorbances at 405 nm and 550 nm were measured after about one hour.

binding result	Binder
no binding (tested: 5 nM)	B1

Molecular target: T1, human IGF-I receptor
Assay: cell-based ELISA, 2 nM antibody on HEK293T cells expressing the receptor, A450-A650
Procedure: as §1, §2

Avidity (relative to control HEK293T cells = 1)	Binder
3.4 fold of control cells	B1
3.4 fold of control cells	B2
3.4 fold of control cells	B3
3.7 fold of control cells	B4
3.4 fold of control cells	B5

Molecular target: T4, cynomolgus monkey IGF-I receptor (cynomolgus monkey, UniProt P08069 31-1367 (human entry))
T4 construct: Whole entry as named; expressed on HEK293T cells; also called IGF-I receptor of cynomolgus monkey; XP_005560575
T4 sequence (P08069 other isoform, or with tags, fused parts or gaps limits assumed): as the sequence (P08069 31-1367 limits assumed) above, with T188A, S471W, A729V, P738L, E1238D counted along it
Assay: as above
Procedure: as §1, §2

Avidity (relative to control HEK293T cells = 1)	Binder
3.3 fold of control cells	B1
3.3 fold of control cells	B2
3.3 fold of control cells	B3
3.7 fold of control cells	B4
3.4 fold of control cells	B5

Molecular target: T5, guinea pig IGF-I receptor (guinea pig, UniProt P08069 31-1367 (human entry))
T5 construct: Whole entry as named; expressed on HEK293T cells; also called IGF-I receptor of guinea pig; XP_003475316
T5 sequence (P08069 other isoform, or with tags, fused parts or gaps limits assumed): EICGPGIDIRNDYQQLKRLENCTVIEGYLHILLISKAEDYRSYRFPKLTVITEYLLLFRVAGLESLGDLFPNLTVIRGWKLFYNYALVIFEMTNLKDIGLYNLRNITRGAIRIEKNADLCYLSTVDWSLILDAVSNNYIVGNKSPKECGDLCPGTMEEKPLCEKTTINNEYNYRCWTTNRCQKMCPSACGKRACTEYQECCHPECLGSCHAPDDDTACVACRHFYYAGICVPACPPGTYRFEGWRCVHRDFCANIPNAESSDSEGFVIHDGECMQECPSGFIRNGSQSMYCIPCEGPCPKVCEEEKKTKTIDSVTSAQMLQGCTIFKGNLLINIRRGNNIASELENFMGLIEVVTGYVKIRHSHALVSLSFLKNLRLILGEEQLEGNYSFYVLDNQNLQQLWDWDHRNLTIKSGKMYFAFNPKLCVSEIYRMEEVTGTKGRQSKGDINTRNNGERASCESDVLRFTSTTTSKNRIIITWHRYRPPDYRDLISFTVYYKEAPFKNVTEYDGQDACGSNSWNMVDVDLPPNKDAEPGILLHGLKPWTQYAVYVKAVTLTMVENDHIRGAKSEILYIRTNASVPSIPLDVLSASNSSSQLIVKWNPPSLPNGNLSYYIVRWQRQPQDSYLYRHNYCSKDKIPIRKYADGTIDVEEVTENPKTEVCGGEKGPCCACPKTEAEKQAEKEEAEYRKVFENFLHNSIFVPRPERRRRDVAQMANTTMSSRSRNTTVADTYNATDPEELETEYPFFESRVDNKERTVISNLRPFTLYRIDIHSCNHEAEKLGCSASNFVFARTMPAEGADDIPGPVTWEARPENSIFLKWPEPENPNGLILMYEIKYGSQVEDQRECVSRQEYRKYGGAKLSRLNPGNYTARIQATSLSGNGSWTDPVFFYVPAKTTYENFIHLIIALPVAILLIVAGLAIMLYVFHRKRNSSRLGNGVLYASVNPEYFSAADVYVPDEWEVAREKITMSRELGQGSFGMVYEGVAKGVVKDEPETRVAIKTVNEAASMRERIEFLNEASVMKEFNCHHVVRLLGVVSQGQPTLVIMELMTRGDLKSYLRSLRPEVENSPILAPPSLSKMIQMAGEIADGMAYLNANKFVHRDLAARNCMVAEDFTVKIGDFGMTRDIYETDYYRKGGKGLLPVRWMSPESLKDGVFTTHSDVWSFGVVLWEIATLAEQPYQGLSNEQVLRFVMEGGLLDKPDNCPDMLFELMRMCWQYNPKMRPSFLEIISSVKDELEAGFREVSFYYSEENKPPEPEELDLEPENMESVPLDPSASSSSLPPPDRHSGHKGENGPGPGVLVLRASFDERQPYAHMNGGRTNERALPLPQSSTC
Assay: as above
Procedure: as §1, §2

Avidity (relative to control HEK293T cells = 1)	Binder
3.3 fold of control cells	B1
3.3 fold of control cells	B2
3.3 fold of control cells	B3
3.4 fold of control cells	B4
3.3 fold of control cells	B5

Molecular target: T2, rat IGF-I receptor
Assay: as above
Procedure: as §1, §2

Avidity (relative to control HEK293T cells = 1)	Binder
0.8 fold of control cells	B1
0.9 fold of control cells	B2
0.9 fold of control cells	B3
0.8 fold of control cells	B4
0.9 fold of control cells	B5

Molecular target: T6, wild-type human IGF-I receptor with C-terminal FLAG tag (human, UniProt P08069 31-1367)
T6 construct: Expressed on 293T cells, formalin fixed; also called positive control
Assay: cell-based ELISA, 5 nM R11-16B on fixed 293T cells expressing the FLAG-tagged receptor; Mock cells gave 0.328
Procedure: as §3, §4

Avidity (absorbance, R11-16B added minus not added) [absorbance]	Binder
0.835	B1

Molecular target: T7, Substitute 1 of CR domain (human IGF-I receptor D245N, A247T, E294D, C-terminal FLAG tag) (human, UniProt P08069 31-1367)
T7 construct: Expressed on 293T cells, formalin fixed; also called substitute 1 receptor
Assay: as above
Procedure: as §3, §4

Avidity (absorbance, R11-16B added minus not added) [absorbance]	Binder
0.885	B1

Molecular target: T3, Substitute 2 of CR domain (human IGF-I …)
Assay: as above
Procedure: as §3, §4

Avidity (absorbance, R11-16B added minus not added) [absorbance]	Binder
0.308	B1
